The source of these data is PMC9744743, “Introducing or removing heparan sulfate binding sites does not alter brain uptake of the blood–brain barrier shuttle scFv8D3” (Scientific Reports, 2022).

In this assay the target is T1, recombinant mouse TfR extracellular domain protein (Mus musculus, UniProt Q62351).
T1 construct: transferrin receptor (TfR), mouse, extracellular domain; also called transferrin receptor; source: recombinant, prepared in our lab
Put plainly: ELISA; indirect ELISA; half-area plates coated with 50 ng/well recombinant mouse TfR extracellular domain in PBS overnight at 4 °C, blocked with 1% BSA; serial dilutions of scFvs 2 h at RT in PBS with 0.1% BSA and 0.05% Tween-20; detected by mouse anti-Strep-Tag II and HRP goat anti-mouse. The settings on record: both partners purified. In general terms: ELISA stands for enzyme-linked immunosorbent assay.

T1 sequence (Q62351 89-763): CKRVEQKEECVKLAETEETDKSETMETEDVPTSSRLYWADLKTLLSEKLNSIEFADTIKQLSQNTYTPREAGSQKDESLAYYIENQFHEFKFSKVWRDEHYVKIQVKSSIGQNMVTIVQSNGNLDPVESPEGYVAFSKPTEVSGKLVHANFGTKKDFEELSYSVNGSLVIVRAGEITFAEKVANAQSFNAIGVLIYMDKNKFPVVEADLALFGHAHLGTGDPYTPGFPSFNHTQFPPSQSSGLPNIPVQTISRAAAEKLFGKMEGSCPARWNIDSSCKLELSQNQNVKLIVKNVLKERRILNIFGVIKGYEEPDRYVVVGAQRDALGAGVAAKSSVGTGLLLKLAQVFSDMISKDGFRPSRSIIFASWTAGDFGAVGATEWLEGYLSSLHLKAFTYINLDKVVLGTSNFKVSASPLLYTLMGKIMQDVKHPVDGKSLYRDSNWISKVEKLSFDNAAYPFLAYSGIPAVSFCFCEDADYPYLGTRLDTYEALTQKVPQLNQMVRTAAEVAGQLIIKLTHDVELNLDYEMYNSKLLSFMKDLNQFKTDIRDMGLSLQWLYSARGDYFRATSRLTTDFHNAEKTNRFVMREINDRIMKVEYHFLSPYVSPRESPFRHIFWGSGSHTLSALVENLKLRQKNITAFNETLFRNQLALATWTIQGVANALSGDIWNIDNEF

B1: HS(−)scFv8D3 mutant (K42Q_K43Q and K243Q_R244Q) (scFv, V domains shown)
VH: EVQLVESGGGLVQPGNSLTLSCVASGFTFSNYGMHWIRQAPQQGLEWIAMIYYDSSKMNYADTVKGRFTISRDNSKNTLYLEMNSLRSEDTAMYYCAVPTSHYVVDVWGQGVSVTVSS
VL: DIQMTQSPASLSASLEEIVTITCQASQDIGNWLAWYQQKPGKSPQLLIYGATSLADGVPSRFSGSRSGTQFSLKISRVQVEDIGIYYCLQAYNTPWTFGGGTKLELQ
notes: as the heavy chain variable domain of m1 with the stated changes; numbers count on: the whole scFv8D3 chain; linker, printed as SGSTS (G4S)3; as the light chain variable domain of m1 with the stated changes; Same tag, linkers and signal peptide as m1; also called HS minus mutant; source: Expi293 cells, transfected, purified from supernatant (Strep-Tactin XT)
On to B1, for which the binding result was “binds”.

B2: HS(+)scFv8D3 mutant (S75K and P176K) (scFv, V domains shown)
VH: EVQLVESGGGLVQPGNSLTLSCVASGFTFSNYGMHWIRQAPKKGLEWIAMIYYDSSKMNYADTVKGRFTISRDNKKNTLYLEMNSLRSEDTAMYYCAVPTSHYVVDVWGQGVSVTVSS
VL: DIQMTQSPASLSASLEEIVTITCQASQDIGNWLAWYQQKKGKSPQLLIYGATSLADGVPSRFSGSRSGTQFSLKISRVQVEDIGIYYCLQAYNTPWTFGGGTKLELK
notes: as the heavy chain variable domain of m1 with the stated change; numbers count on: the whole scFv8D3 chain; linker, printed as SGSTS (G4S)3; as the light chain variable domain of m1 with the stated change; Same tag, linkers and signal peptide as m1; That S75 lies in the first domain and P176 in the second is worked out from the residue numbers; also called HS plus mutant; source: Expi293 cells, …
Take B2: the binding result was “binds”.
